Here are results for 8 molecules from patent publication US20240166738A1 (Alector, published 2024).

One experiment deals with human TMEM106B (human, UniProt Q9NUM4 2-274). Kind of experiment: cell-based or functional assay.
Experiment [1] has as its target T1, GST-TMEM106B (truncated, comprising amino acids 122-210 of SEQ ID NO:1) (human, UniProt Q9NUM4 122-210).
T1 construct: GST written first by the name only; also called truncated GST-TMEM106B fusion protein; GST-TMEM106B polypeptide fusion; not shown: GST fusion partner
As to the kind of experiment: pre-mix epitope binning, antibody immobilized on chip array.
Throughout, for % Protection from CPE: test concentration or dose not given here.

B1: TM-52 (antibody, V domains shown)
VH: QVQLQQPGAELVKPGASVKLSCKASGYTFTNYWMHWVKQRPGQGLDWIGNIDPSDSETHYNQKFKDKATLTVDKVSSTAYMQLSSLTSEDSAVYYCARRGYYGRSPFAYWGQGTLVTVSA
VL: ENVLTQSPAIMSASPGEKVTMTCSASSSVSYMHWYQQKSNTSPKLWIYDTSKLASGVPGRFSGSGSGNSYSLTISSAEAEDVATYYCFQGSGYPLTFGAGTKLELK
notes: mouse hybridoma mAb
Regarding B1, the “% Protection from CPE” value with human TMEM106B is 3.6%. For the same molecule, in experiment [1], the binding result is “no binding (tested: 55 nM antigen (2 ug/mL))”.

B2: TM-14 (antibody, V domains shown)
VH: QVQLQQSGPELVRPGTSVKVSCKASGYAFTNYLIEWVKQRPGQGLEWIGVINPGGGNTDYSEKFKDKATLTADKSSNTAYIQLSSLTSEDSAVYFCARSPYSSYVGYAVDYWGQGTSVTVSS
VL: DIQMTQSPSSLSASLGERVSLTCRASQDIGSNLNWLQQEPDGTIKRLIYATSSLDSGVPKRFSGSRSGSDYSLTISSLESEDFVVYYCLQYASSPRTFGGGTRLEIK
notes: mouse hybridoma mAb
Turning to B2, the “% Protection from CPE” value in the experiment with human TMEM106B came out at 4%. In addition, the binding result in experiment [1] was “no binding (tested: 55 nM antigen (2 ug/mL))”.

B3: TM-71 (antibody, V domains shown)
VH: EVQLVESGGALVKPGGSLKLSCAASGFTFSNYAMSWVRQTPEKRLEWVATIGYGGSYSYYPDSVKGRFTISRDNAKNTLYLQMSSLRSEDTALYYCARQDSNYEGVWFAYWGQGTLVTVSS
VL: DIVMTQAAPSVPVTPGESVSISCRSSKSLLHTNGNTYLFWFIQRPGQSPHLLIYRKSNLASGVPDRFSGSGSGTAFTLRISRVEAEDVGVYYCMQHLEYPFTFGSGTKLEIK
notes: mouse hybridoma mAb
Regarding B3, in the experiment with human TMEM106B, the “% Protection from CPE” value is 3.2%. In experiment [1], the binding result is “no binding (tested: 55 nM antigen (2 ug/mL))”.

B4: TM-69 (antibody, V domains shown)
VH: QVQLKESGPDLVQPSQTLSLTCTVSGFSFTSYGVHWVRQPPGKGLEWVGIMGWDDKKYYNSALKSRLSISRDTSKNQVFLKLSSLQTEDTAMYYCTREAGPYGMDYWGQGTSVTVSS
VL: DVVMTQTPLSLPVSLGDQASISCRSSQSLVHSNGNTYLHWYLQKPGQSPKLLIYKVSNRFSGVPDRFSGSGSGTDFTLKISRVEAEDLGVYFCSQNTHVPLTFGAGTKLELK
notes: mouse hybridoma mAb
For the molecule B4, in the experiment with human TMEM106B, the “% Protection from CPE” value is 4.3%. In addition, the binding result in experiment [1] is “no binding (tested: 55 nM antigen (2 ug/mL))”.

B5: TM-33 (antibody, V domains shown)
VH: EFQLQQSGPELVKPGASVKISCKASGYSFTDYNMNWVKQSNGKSLEWIGVINPNYGTTSYNQKFKGKATLTVDQSSSTAYMQLNSLTSEDSAVYYCASSYWGQGTLVTVSA
VL: DIVMTQSQKFMSTTVGDRVSITCKASQNVGTAVAWYQQKPGQSPKLLIYSASNRYTGVPDRFTGSGSGTDFTLTISNMQSEDLADYFCQQYSSYPYTFGGGTKLEIK
notes: mouse hybridoma mAb
Consider B5, for which the “% Protection from CPE” value in the experiment with human TMEM106B is 4.4%. In experiment [1], the binding result is listed as “no binding (tested: 55 nM antigen (2 ug/mL))”.

B6: TM-2 (antibody, V domains shown)
VH: HIQLVQSGPELKKPGETVKISCKASGYTFTEYPMHWVKQAPGKGFRWMGMIYTNTGEPTYAAEFKGRFAFSLETSASTGYLQINNLKNEDSATYFCVTAGYWGQGTLVTVSA
VL: QIVLTQSPAILSASPGEKVTMTCRASSSVSYIHWFLQKPGSSPKPWIYATSNLASGVPFRFIGSGSGTSYSLTISGVEAEDSATYYCQQWSSNPSTFGAGTKLELK
notes: mouse hybridoma mAb
For B6, the “% Protection from CPE” value in the experiment with human TMEM106B came out at 4.3%. For the same molecule, in experiment [1], the binding result was “no binding (tested: 55 nM antigen (2 ug/mL))”.

B7: TM-65 (antibody, V domains shown)
VH: QVQLQQPGAEFVKPGASVRLSCKTSGYTFTSSWMHWVKQRPGQGLEWIGEINPKNGGTNYNEKFKTKATLTVDKSSNTAYMQLSSLTSEDSAVYYCTIPTWFTYWGQGTLVTVSS
VL: DIQMNQSPSSLSASLGDTITITCRASQNINIWLSWYQQKPGNVPKLLIYKASNLHTGVPSRFSGSGSGTGFTLTISSLQPEDIATYYCLQGQSYPYTFGGGTKLGIK
notes: mouse hybridoma mAb
B7: in the experiment with human TMEM106B, the “% Protection from CPE” value was determined as 4%. Also, in experiment [1], the binding result is listed as “no binding (tested: 55 nM antigen (2 ug/mL))”.

B8: TM-8 (antibody, V domains shown)
VH: QIQLVQSGPELKKPGETVKISCKASGYTFTDYPMHWVKQAPGKGFKWMGVIYTDTGEPKYAEVFKGRFAFSLETSASTAYLQINNLKNEDTATYFCVRRLAYWGQGTLVTVSA
VL: DIKMTQSPSSMYASLGERVTITCKASQDINSYLSWFQQKPGKSPKTLIFRANRLVDGVPSRFSGSGSGQDYSLTISSLEYEDMGIYYCLQYDEFPLTFGAGTKLEMK
notes: mouse hybridoma mAb
For the molecule B8, in the experiment with human TMEM106B, the “% Protection from CPE” value turned out to be 3.8%. For the same molecule, the binding result in experiment [1] was “no binding (tested: 55 nM antigen (2 ug/mL))”.
